From paper PMC6197184, “Cyclophilin J limits inflammation through the blockage of ubiquitin chain sensing” (Nature Communications, 2018)
Blank lines part the entries; values can stand above or below the binder they belong to.

Tests used:
His-CYPJ (recombinant) [1] = target: T1, His-CYPJ (recombinant) (human, UniProt Q9H2H8 1-161); assay: ITC
T1 chain: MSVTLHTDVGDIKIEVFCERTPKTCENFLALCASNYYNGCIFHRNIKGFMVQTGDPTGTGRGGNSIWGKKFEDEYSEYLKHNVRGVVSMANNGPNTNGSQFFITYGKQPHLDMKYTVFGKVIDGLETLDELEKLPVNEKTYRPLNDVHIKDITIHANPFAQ

His-CYPJ (recombinant) [2] = target: T2, His-CYPJ (recombinant) (human, UniProt Q9H2H8 1-161); assay: ITC; synthetic NZF peptides and His-CYPJ; MicroCal iTC200, standard procedure; conditions: both partners purified
T2 construct: cyclophilin J (CYPJ, PPIL3), human; also called recombinant His-CYPJ
T2 sequence (looked up): T1 chain

Ka (His-CYPJ (recombinant) [1]): 283 M⁻¹
binding result (His-CYPJ (recombinant) [2]): binds
B1: TAB2-NZF peptide (peptide)
peptide: QWNCTACTFLNHPALIRCEQCEMP
notes: peptide from the NZF domain of TAB2; limits counted from C670 and C673 named in the introduction; source: synthetic peptide (DgPeptides)

Ka (His-CYPJ (recombinant) [1]): 1030 M⁻¹
binding result (His-CYPJ (recombinant) [2]): binds
B2: TAB3-NZF peptide (peptide)
peptide: WNCDSCTFLNHPALNRCEQCEMP
notes: peptide from the NZF domain of TAB3; limits counted from C706 named in the introduction; source: synthetic peptide (DgPeptides)
